One experiment has as its target T1, Kap114pΔ(932-941) (S. cerevisiae, UniProt P53067 1-1004, Δ(932-941)).
T1 construct: Kap114p, S. cerevisiae, full length with residues 932-941 deleted; also called Kap114p(D932-941); Kap114p deletion mutant lacking the HEAT19 loop (a.a. 932-941); source: E. coli (Rosetta strain), purified (GST resin, MonoQ, Superdex 200)
T1 sequence (looked up): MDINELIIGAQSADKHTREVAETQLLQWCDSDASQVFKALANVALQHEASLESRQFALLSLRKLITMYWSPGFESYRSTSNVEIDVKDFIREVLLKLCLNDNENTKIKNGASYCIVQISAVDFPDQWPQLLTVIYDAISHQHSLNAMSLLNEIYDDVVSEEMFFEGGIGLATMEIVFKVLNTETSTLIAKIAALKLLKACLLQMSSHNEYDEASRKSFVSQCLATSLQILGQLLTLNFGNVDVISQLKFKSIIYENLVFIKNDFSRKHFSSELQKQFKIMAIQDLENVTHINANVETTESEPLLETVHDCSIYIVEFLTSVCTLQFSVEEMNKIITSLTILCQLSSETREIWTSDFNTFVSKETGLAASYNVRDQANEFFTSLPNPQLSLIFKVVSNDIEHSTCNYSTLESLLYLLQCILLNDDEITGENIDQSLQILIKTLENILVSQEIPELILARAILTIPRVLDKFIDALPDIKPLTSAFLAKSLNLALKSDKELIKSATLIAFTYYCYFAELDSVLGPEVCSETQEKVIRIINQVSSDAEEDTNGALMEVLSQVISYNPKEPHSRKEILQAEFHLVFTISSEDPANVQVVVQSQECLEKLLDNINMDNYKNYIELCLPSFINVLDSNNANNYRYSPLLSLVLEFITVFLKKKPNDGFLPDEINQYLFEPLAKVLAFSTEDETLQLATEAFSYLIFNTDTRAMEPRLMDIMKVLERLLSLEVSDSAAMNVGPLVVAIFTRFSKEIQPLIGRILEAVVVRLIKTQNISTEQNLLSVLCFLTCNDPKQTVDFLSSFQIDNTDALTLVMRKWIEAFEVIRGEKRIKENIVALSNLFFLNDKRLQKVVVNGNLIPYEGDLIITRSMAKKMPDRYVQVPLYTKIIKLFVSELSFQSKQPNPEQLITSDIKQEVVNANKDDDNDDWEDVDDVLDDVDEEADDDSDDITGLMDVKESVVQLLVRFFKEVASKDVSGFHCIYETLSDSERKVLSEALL
The experiment in a line: ITC; Kap114p (wild type or mutant) 50 uM in the sample cell, partner 500 uM in the syringe; 25 °C; 20 mM HEPES pH 7.4, 150 mM NaCl; triplicate. To be noted: both partners purified. For orientation: Isothermal titration calorimetry measures the heat released or taken up as one component is titrated into another.

The target in another experiment is T2, Kap114pΔY939 (S. cerevisiae, UniProt P53067 1-1004, ΔY939).
T2 construct: Kap114p, S. cerevisiae, full length with residue Y939 deleted; also called Kap114p(DY939); source: E. coli (Rosetta strain), purified (GST resin, MonoQ, Superdex 200)
T2 sequence (looked up): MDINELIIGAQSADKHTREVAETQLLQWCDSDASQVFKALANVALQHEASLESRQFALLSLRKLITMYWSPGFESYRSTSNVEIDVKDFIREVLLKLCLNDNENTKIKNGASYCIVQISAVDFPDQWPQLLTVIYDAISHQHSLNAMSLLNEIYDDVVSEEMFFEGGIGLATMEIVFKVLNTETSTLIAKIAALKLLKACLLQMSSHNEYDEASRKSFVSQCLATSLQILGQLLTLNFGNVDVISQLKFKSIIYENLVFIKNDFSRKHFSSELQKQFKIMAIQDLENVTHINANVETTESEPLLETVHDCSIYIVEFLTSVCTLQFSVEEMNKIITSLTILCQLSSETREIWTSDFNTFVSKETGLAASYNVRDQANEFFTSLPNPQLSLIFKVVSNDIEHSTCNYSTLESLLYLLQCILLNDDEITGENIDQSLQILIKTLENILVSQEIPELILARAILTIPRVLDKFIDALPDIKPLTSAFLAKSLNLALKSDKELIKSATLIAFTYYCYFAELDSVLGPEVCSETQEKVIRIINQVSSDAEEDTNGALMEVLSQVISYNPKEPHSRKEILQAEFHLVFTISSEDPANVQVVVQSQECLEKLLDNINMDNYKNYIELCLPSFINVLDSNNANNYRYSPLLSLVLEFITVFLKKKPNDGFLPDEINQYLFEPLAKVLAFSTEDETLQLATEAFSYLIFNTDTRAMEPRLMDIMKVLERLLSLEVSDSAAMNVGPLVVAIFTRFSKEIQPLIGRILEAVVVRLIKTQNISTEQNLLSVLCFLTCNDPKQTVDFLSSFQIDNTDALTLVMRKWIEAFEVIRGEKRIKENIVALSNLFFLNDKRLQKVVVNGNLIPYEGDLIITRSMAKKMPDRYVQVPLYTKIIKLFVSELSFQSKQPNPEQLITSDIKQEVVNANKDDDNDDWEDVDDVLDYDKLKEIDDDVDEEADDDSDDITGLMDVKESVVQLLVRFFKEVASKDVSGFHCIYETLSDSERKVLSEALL
The experiment is described as above. To be noted: both partners purified.

Where “and” joins values, the source holds several entries; their conditions need not be identical. Equal entries are not always repeated.

B1: core domain of yTBP (a.a. 61-240) (domain or fragment, S. cerevisiae, UniProt P13393 61-240, looked up)
chain: SGIVPTLQNIVATVTLGCRLDLKTVALHARNAEYNPKRFAAVIMRIREPKTTALIFASGKMVVTGAKSEDDSKLASRKYARIIQKIGFAAKFTDFKIQNIVGSCDVKFPIRLEGLAFSHGTFSSYEPELFPGLIYRMVKPKIVLLIFVSGKIVLTGAKQREEIYQAFEAIYPVLSEFRKM
notes: 61-240; also called yTBP^C; yTBPc; source: E. coli (Rosetta strain), purified (Ni-NTA, HiTrap SP, Superdex 75); not shown: 6xHis, N-terminal, cleaved
As to B1, in the experiment with Kap114pΔ(932-941), the Ka was 5.09e+06 M⁻¹ and 8.69e+06 M⁻¹ and 6.15e+06 M⁻¹. In addition, in the experiment with Kap114pΔY939, the Kd (commonly the constant that tells how readily two partners part at equilibrium) came to 37.1 nM.

(Values after article PMC10491584, “Structural convergence endows nuclear transport receptor Kap114p with a transcriptional repressor function toward TATA-binding protein” (Nature Communications, 2023).)
